Assay results: PMC10504544, “1-deoxy-D-xylulose-5-phosphate synthase from Pseudomonas aeruginosa and Klebsiella pneumoniae reveals conformational changes upon cofactor binding” (The Journal of Biological Chemistry, 2023)

Assays:
[1] = system: O=CC(O)COP(=O)(O)O; experiment: steady-state kinetics (Km), IspC-coupled assay; format: biochemical, Klebsiella pneumoniae; details: ThDP, Mg2+
[2] = system: CC(=O)C(=O)O; experiment: steady-state kinetics (Km), IspC-coupled assay; format: biochemical, Klebsiella pneumoniae; details: ThDP, Mg2+
[3] = system: Cc1ncc(C[n+]2csc(CCO[P@](=O)(O)OP(=O)(O)O)c2C)c(N)n1; experiment: steady-state kinetics (Km); format: biochemical, Klebsiella pneumoniae; details: Mg2+ active site; diphosphate in asparagine-rich region with H bond from Ser52; varied: cofactor
[4] = system: Cc1ncc(C[n+]2csc(CCO[P@](=O)(O)OP(=O)(O)O)c2C)c(N)n1; experiment: purified protein; format: biochemical, Pseudomonas aeruginosa; details: varied: cofactor

Substance | Km [1] | Km [2] | Km [3] | Km [4]
1-deoxy-D-xylulose-5-phosphate synthase (kpDXPS) (Klebsiella pneumoniae subsp. pneumoniae MGH 78578; DEL197-240/INS196GGGGGG) | 170 ± 43 µM | 113 ± 34 µM | 0.11 ± 0.017 µM | –
1-deoxy-D-xylulose-5-phosphate synthase (paDXPS) (Pseudomonas aeruginosa LESB58; DEL206-245/INS205GGGGGG) | – | – | – | 0.0965 ± 0.014 µM
